Biological target: purified HLA MHC Class II molecules (human)
Experiment: ELISA, biotinylated peptides on immobilized purified HLA class II molecules (FIG. 5)

dnaJp1 peptide (…)
fold stronger binding than S1 and S6 peptides: > 100 fold

— patent US7094597
